Reference: the supplement of paper PMC10567573

B1: LOXL2 (parent)
chain: RLLRFSSQIHNNGQSDFRPKNGRH

Variants of: B1
Experiment: protein stability index of a GFP-peptide fusion (GPS, HEK-293T) (PSI 1-6); higher = more stable
Settings: c terminus: a fixed tail appended
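Also: lentivirally expressed fusions sorted by FACS into six bins by GFP to DsRed ratio, PSI derived from sequencing read proportions per bin multiplied by bin number.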

| Variant | protein stability index |
| --- | --- |
| RLLRFSSQIHNNGQSDFRPKPGRH [N21P] | 2.4 |
| RLLRFSSQIHNNGQSDFRPKWGRH [N21W] | 1.52 |
| RLLRFSSQIHNNGQSDFRPKHGRH [N21H] | 2.23 |
| RLLRFSSQIHNNGQSDFRPKAGRH [N21A] | 2.82 |
| RLLRFSSQIHNNGQSDFRPKFGRH [N21F] | 2.04 |
| RLLRFSSQIHNNGQSDFRPKKGRH [N21K] | 2.85 |
| RLLRFSSQIHNNGQSDFRPKYGRH [N21Y] | 1.77 |
| RLLRFSSQIHNNGQSDFRPKSGRH [N21S] | 2.33 |
| RLLRFSSQIHNNGQSDFRPKTGRH [N21T] | 2.37 |
| RLLRFSSQIHNNGQSDFRPKRGRH [N21R] | 2.62 |
| RLLRFSSQIHNNGQSDFRPKQGRH [N21Q] | 2.71 |
| RLLRFSSQIHNNGQSDFRPKCGRH [N21C] | 2.13 |
| RLLRFSSQIHNNGQSDFRPKIGRH [N21I] | 1.79 |
| RLLRFSSQIHNNGQSDFRPKVGRH [N21V] | 2.41 |
| RLLRFSSQIHNNGQSDFRPKGGRH [N21G] | 2.49 |
| RLLRFSSQIHNNGQSDFRPKDGRH [N21D] | 2.93 |
| RLLRFSSQIHNNGQSDFRPKMGRH [N21M] | 2.27 |
| RLLRFSSQIHNNGQSDFKPKNGRH [R18K] | 3.23 |
| RLLRFSSQIHNNGQSDFHPKNGRH [R18H] | 2.45 |
| RLLRFSSQIHNNGQSDFYPKNGRH [R18Y] | 2.59 |
| RLLRFSSQIHNNGQSDFLPKNGRH [R18L] | 2.31 |
| RLLRFSSQIHNNGQSDFGPKNGRH [R18G] | 2.33 |
| RLLRFSSQIHNNGQSDFVPKNGRH [R18V] | 3.04 |
| RLLRFSSQIHNNGQSDFCPKNGRH [R18C] | 2.42 |

| Variant | protein stability index |
| --- | --- |
| RLLRFSSQIHNNGQSDFMPKNGRH [R18M] | 2.67 |
| RLLRFSSQIHNNGQSDFQPKNGRH [R18Q] | 2.99 |
| RLLRFSSQIHNNGQSDFIPKNGRH [R18I] | 2.61 |
| RLLRFSSQIHNNGQSDFPPKNGRH [R18P] | 2.83 |
| RLLRFSSQIHNNGQSDFWPKNGRH [R18W] | 3.03 |
| RLLRFSSQIHNNGQSDFNPKNGRH [R18N] | 2.87 |
| RLLRFSSQIHNNGQSDFEPKNGRH [R18E] | 3.27 |
| RLLRFSSQIHNNGQSDFFPKNGRH [R18F] | 2.6 |
| RLLRFSSQIHNNGQSDFTPKNGRH [R18T] | 3.29 |
| RLLRFSSQIHNNGQSDFSPKNGRH [R18S] | 3.05 |
| RLLRFSSQIHNNGQSDFAPKNGRH [R18A] | 3.21 |
| RLLRFSSQIHNNGQSDFDPKNGRH [R18D] | 3.29 |
| RLLRFSSQIHNNGQSDFRPKNARH [G22A] | 2.57 |
| RLLRFSSQIHNNGQSDFRTKNGRH [P19T] | 2.32 |
| RLLRFSSQIHNNGQSDFRLKNGRH [P19L] | 2.54 |
| RLLRFSSQIHNNGQSDFRSKNGRH [P19S] | 2.98 |
| RLLRFSSQIHNNGQSDFRKKNGRH [P19K] | 2.71 |
| RLLRFSSQIHNNGQSDFRCKNGRH [P19C] | 2.52 |
| RLLRFSSQIHNNGQSDFREKNGRH [P19E] | 3.29 |
| RLLRFSSQIHNNGQSDFRRKNGRH [P19R] | 2.41 |
| RLLRFSSQIHNNGQSDFRHKNGRH [P19H] | 2.54 |
| RLLRFSSQIHNNGQSDFRVKNGRH [P19V] | 2.04 |
| RLLRFSSQIHNNGQSDFRWKNGRH [P19W] | 2.76 |
| RLLRFSSQIHNNGQSDFRYKNGRH [P19Y] | 2.37 |

| Variant | protein stability index |
| --- | --- |
| RLLRFSSQIHNNGQSDFRQKNGRH [P19Q] | 2.7 |
| RLLRFSSQIHNNGQSDFRGKNGRH [P19G] | 2.78 |
| RLLRFSSQIHNNGQSDFRIKNGRH [P19I] | 2.58 |
| RLLRFSSQIHNNGQSDFRAKNGRH [P19A] | 2.67 |
| RLLRFSSQIHNNGQSDFRDKNGRH [P19D] | 2.9 |
| RLLRFSSQIHNNGQSDFRMKNGRH [P19M] | 2.21 |
| RLLRFSSQIHNNGQSDFRNKNGRH [P19N] | 2.84 |
| RLLRFSSQIHNNGQSDFRFKNGRH [P19F] | 2.13 |
| RLLRFSSQIHNNGQVDFRPKNGRH [S15V] | 2.44 |
| RLLRFSSQIHNNGQQDFRPKNGRH [S15Q] | 2.77 |
| RLLRFSSQIHNNGQEDFRPKNGRH [S15E] | 3.14 |
| RLLRFSSQIHNNGQLDFRPKNGRH [S15L] | 2.36 |
| RLLRFSSQIHNNGQKDFRPKNGRH [S15K] | 2.42 |
| RLLRFSSQIHNNGQHDFRPKNGRH [S15H] | 3.05 |
| RLLRFSSQIHNNGQDDFRPKNGRH [S15D] | 3.06 |
| RLLRFSSQIHNNGQFDFRPKNGRH [S15F] | 2.28 |
| RLLRFSSQIHNNGQNDFRPKNGRH [S15N] | 2.36 |
| RLLRFSSQIHNNGQRDFRPKNGRH [S15R] | 2.55 |
| RLLRFSSQIHNNGQWDFRPKNGRH [S15W] | 2.44 |
| RLLRFSSQIHNNGQIDFRPKNGRH [S15I] | 2.72 |
| RLLRFSSQIHNNGQTDFRPKNGRH [S15T] | 2.8 |
| RLLRFSSQIHNNGQADFRPKNGRH [S15A] | 2.61 |
| RLLRFSSQIHNNGQPDFRPKNGRH [S15P] | 3.12 |
| RLLRFSSQIHNNGQCDFRPKNGRH [S15C] | 2.65 |

| Variant | protein stability index |
| --- | --- |
| RLLRFSSQIHNNGQYDFRPKNGRH [S15Y] | 2.83 |
| RLLRFSSQIHNNGQGDFRPKNGRH [S15G] | 3.29 |
| RLLRFSSQIHNNGQMDFRPKNGRH [S15M] | 2.2 |
| RLLRFSSQIHNNGQSDFRPCNGRH [K20C] | 2.35 |
| RLLRFSSQIHNNGQSDFRPWNGRH [K20W] | 2.08 |
| RLLRFSSQIHNNGQSDFRPYNGRH [K20Y] | 2.23 |
| RLLRFSSQIHNNGQSDFRPANGRH [K20A] | 2.49 |
| RLLRFSSQIHNNGQSDFRPFNGRH [K20F] | 2.22 |
| RLLRFSSQIHNNGQSDFRPTNGRH [K20T] | 3.01 |
| RLLRFSSQIHNNGQSDFRPSNGRH [K20S] | 2.78 |
| RLLRFSSQIHNNGQSDFRPRNGRH [K20R] | 2.78 |
| RLLRFSSQIHNNGQSDFRPENGRH [K20E] | 3.45 |
| RLLRFSSQIHNNGQSDFRPHNGRH [K20H] | 2.6 |
| RLLRFSSQIHNNGQSDFRPLNGRH [K20L] | 1.89 |
| RLLRFSSQIHNNGQSDFRPNNGRH [K20N] | 2.92 |
| RLLRFSSQIHNNGQSDFRPINGRH [K20I] | 2.17 |
| RLLRFSSQIHNNGQSDFRPDNGRH [K20D] | 2.91 |
| RLLRFSSQIHNNGQSDFRPPNGRH [K20P] | 2.47 |
| RLLRFSSQIHNNGQSDFRPMNGRH [K20M] | 1.92 |
| RLLRFSSQIHNNGQSDFRPVNGRH [K20V] | 2.35 |
| RLLRFSSQIHNNGQSDFRPQNGRH [K20Q] | 2.54 |
| RLLRFSSQIHNNGQSDFRPGNGRH [K20G] | 2.79 |
